Data on four molecules can be found in paper PMC9333443, “Structural insights into Pot1-ssDNA, Pot1-Tpz1 and Tpz1-Ccq1 Interactions within fission yeast shelterin complex” (PLoS Genetics, 2022).

The target in data set [1] is T1, Pot1DBD (Schizosaccharomyces pombe, UniProt O13988 2-339).
T1 sequence: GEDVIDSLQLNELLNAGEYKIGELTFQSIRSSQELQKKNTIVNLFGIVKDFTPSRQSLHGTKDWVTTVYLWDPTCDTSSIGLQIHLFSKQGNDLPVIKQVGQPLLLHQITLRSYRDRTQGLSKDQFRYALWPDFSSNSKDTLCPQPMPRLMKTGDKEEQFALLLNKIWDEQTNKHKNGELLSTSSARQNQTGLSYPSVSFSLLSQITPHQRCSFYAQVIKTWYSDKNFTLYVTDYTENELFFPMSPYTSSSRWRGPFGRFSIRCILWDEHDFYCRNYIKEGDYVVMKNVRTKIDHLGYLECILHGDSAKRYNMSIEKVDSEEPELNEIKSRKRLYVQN
The experiment in a line: ITC; Kd only in figure; ITC: 25 mM Tris-HCl pH 8.0, 150 mM NaCl, 20 C; gel filtration (complex purification): 25 mM Tris-HCl pH 8.0, 150 mM NaCl, 5 mM DTT. To be noted: protein: recombinant; tags: His6-SUMO (N-terminal, removed with ULP1); single strand.

In the next data set the target is T2, Pot1 full length;Tpz1PIM (Schizosaccharomyces …, UniProt O13988;O14246 1-555;164-240, |).
T2 sequence 1: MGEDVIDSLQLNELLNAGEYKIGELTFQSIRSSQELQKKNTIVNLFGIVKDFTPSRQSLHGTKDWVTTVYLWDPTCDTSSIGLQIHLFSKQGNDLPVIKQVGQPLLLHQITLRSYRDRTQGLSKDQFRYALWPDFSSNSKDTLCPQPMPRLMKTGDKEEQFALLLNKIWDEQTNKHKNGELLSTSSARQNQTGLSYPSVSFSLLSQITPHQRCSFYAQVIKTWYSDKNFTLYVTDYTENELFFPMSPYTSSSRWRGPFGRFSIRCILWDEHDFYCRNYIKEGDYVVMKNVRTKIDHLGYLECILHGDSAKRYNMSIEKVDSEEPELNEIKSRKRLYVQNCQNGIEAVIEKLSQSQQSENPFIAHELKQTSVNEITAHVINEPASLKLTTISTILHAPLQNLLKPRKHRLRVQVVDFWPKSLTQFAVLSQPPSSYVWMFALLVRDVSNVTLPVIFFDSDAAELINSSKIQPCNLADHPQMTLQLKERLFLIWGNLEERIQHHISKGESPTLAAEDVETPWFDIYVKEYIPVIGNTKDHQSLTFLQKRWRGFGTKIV
T2 sequence 2: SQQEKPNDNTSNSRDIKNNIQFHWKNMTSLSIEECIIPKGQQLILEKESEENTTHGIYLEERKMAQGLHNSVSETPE
The experiment in a line: complex reconstitution; stable complex after mixing with Tel18; ITC: 25 mM Tris-HCl pH 8.0, 150 mM NaCl, 20 C; gel filtration (complex purification): 25 mM Tris-HCl pH 8.0, 150 mM NaCl, 5 mM DTT. The note with it: protein: recombinant;recombinant, tags: His6-SUMO/GST system, co-expressed with Tpz1PIM;His6-SUMO/GST system, copies: 1;1, single strand.

For data set [2], the target named is T3, Ccq1 (residues 123-439), without the deletion (S. pombe, UniProt Q10432 123-439).
T3 construct: The methods describe only the deleted form; this undeleted form gave crystals that diffracted to about 4.0 Å; also called N-terminal region of Ccq1
T3 sequence (looked up): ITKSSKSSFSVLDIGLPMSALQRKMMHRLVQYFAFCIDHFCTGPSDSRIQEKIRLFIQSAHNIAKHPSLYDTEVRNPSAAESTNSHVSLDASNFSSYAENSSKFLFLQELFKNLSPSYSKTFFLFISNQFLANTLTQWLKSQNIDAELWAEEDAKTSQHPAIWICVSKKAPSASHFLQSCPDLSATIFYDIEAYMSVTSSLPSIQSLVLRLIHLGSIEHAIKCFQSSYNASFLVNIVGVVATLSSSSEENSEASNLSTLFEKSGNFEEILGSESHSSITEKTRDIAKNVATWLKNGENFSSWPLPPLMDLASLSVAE
The experiment in a line: SEC; co-expressed and co-purified complexes on gel filtration (calibrated for Tpz1CBM-Ccq1TAD); 25 mM Tris-HCl pH 8.0, 150 mM NaCl, 5 mM dithiothreitol. To be noted: both partners purified.

In data set [3] the target is T4, Ccq1TAD (Ccq1 123-439 with deletion of residues 199-215), purified (S. pombe, UniProt Q10432 123-439, deletion of residues 199–215).
T4 construct: Two copies stand in the 2:2 complex with Tpz1CBM; not shown: His6, N-terminal, cleaved; SUMO, N-terminal, cleaved
T4 sequence (looked up): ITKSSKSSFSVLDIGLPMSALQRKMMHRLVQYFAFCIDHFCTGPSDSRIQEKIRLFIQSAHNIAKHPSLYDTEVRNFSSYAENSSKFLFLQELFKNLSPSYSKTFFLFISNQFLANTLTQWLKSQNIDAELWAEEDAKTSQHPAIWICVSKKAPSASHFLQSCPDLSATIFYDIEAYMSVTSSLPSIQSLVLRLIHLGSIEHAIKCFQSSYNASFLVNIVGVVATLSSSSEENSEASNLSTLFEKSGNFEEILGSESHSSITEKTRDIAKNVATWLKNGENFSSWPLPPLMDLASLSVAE
The experiment in a line: crystal structure; Tpz1CBM-Ccq1TAD complex, SAD, 2.4 Å; sitting drop at 4°C, 15% PEG4000, 200 mM potassium chloride, 50 mM magnesium chloride, 50 mM Tris-HCl pH 7.8. To be noted: both partners purified.

The target of data set [4] is T1, Pot1DBD. As to the kind of experiment: gel filtration; 1:1 stoichiometry; ITC: 25 mM Tris-HCl pH 8.0, 150 mM NaCl, 20 C; gel filtration (complex purification): 25 mM Tris-HCl pH 8.0, 150 mM NaCl, 5 mM DTT. The note with it: protein: recombinant; tags: His6-SUMO (N-terminal, removed with ULP1); single strand.

In the case of GGTTACAGGGGTTACGGT (ssDNA) [Tel18], the binding result with Pot1DBD [1] and with Pot1 full length;Tpz1PIM was “binds” throughout. Consider GGTTACGGTTACGGT (ssDNA) [Tel15], for which the binding result with Pot1DBD [1] is “binds”. EQIELEYKRKPIPDYDFMKGLETTLQELYVEHQSKKRRLELFQLTN (domain or fragment, S. pombe, UniProt O14246 425-470, looked up, not shown: GST, N-terminal, cleaved) [Tpz1CBM (Tpz1 425-470), purified]: the binding result in data set [2] is “binds”. In addition, in data set [3], the “stoichiometry N” value was 1 Tpz1CBM per Ccq1TAD (printed as 2:2). For GGTTACAGGGTTACGGT (ssDNA) [Tel17], the binding result in the data set with Pot1DBD [4] is “binds”.
